Experiment: yeast display, Sf9 membrane polyspecificity reagent, FACS + sequencing; frameworks hold sequencing errors
Outline: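 After 36–48 hours of galactose induction, yeast (Saccharomyces cerevisiae BJ5465) displaying a synthetic nanobody library were stained at 4 °C for 1 hour with 10% biotinylated, detergent-solubilized Sf9 membrane reagent. Streptavidin microbeads enriched the stained cells before FACS sorting into low and high (top ~1%) gates on anti-HA and streptavidin fluorescence. Each clone's polyreactivity label reflects its gate of origin.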

Sequence	polyreactivity (PSR sort gate)
QVQLVESGGGLVQAGGSLRLSCAASGRTSLRYAMGWYRQAPGKERELVAAIRYGGGSTRYADSVKGRFTISRDNAKNTVYLQMNSLKPEDTAVYYCAARYFPRIQYGRKGYDYWGQGTQVTVSS	low polyreactivity
QVQLVESGGGLVQAGGSLRLSCAASGRTSLYYAMGWYRQAPGKEREFVATITSGGSTNYADSVKGRFTISRDNAKNTVYLQMNSLKPEDTALYYCNARWRRGKTRYGYWGQGTQVNVSS	high polyreactivity
QVQLVESGGGLVQAGGSLRLSCAASGRTSRSYTMGWYRQAPGKERELVAAITRGGRTYYADSVKGRFTISRDNAMNTVYLQMNSLKPEDTAVYYCATDRVQSYGYWGQGTQVTVSS	low polyreactivity
QVQLVESGGGLVQAGGSLRLSCAASGRTSRYYAMGWYRQAPGKERELVAGISWSGGNTYYADSVKGRFTISRDNAKNTVYLQMNSLKPEDTAVYYCNARIGWSPSRYGYWGQGTQVTVSS	high polyreactivity
QVQLVESGGGLVQAGGSLRLSCAASGRTSSRYVMGWYRQAPGKERELVASLSRSGGSTSYADSVKGRFTISRDNAKNTVYLQMISLKPEDTAVDYCYARTSFQRGGGFWGQGTQVTVSS	high polyreactivity
QVQLVESGGGLVQAGGSLRLSCAASGRTSTIYTMGWYRQAPGKESEFVASISAGAGTYYADSVKGRFTISRDNAKNTVYLQMNSLKPEDTAVYYCNASVYWRSTRRHQMDYWGQGTQVTVSS	high polyreactivity
QVQLVESGGGLVQAGGSLRLSCAASGRTSVIYAMGWYRPAPGKERELVAGISYRGTSTYYADSVKGRFTISRDNAKNTVYLLMNSLKPEDTAVYYCAAESYYKYFNNYDYWGQGTQVTVAS	high polyreactivity
QVQLVESGGGLVQAGGSLRLSCAASGRTSVLYAMGWYRQAPGKEREFVAAITWNSGSTYYADSVKGRFTISRDNAKNTVYFQMNSLNPEDTAGYYCAADGLSYYVIRFDYWGQGTQVTVSS	low polyreactivity
QVQLVESGGGLVQAGGSLRLSCAASGRTSWANVMGWYRQAPGKERELVAAISSSGDSTYYADSVKGRFTISRDNAKNTVYLQMNSLKPEDTAVDYCAAGYELSDLAILDYRYDYWGQGSQVTVSS	low polyreactivity
QVQLVESGGGLVQAGGSLRLSCAASGRTVNIYAMGWYRQAAGKERELVADISYSDGSTDYADSVKGRFTISRDNAKNTVYLQMNSLKPEDTAVYYCAAYYYYYYGFGQRYYSWGQGTQVTVSS	low polyreactivity
QVQLVESGGGLVQAGGSLRLSCAASGRTVRVYAMGWYRQAPGKERELVAAINGGGSTNYADSVKGRFTISRDSAKNTVYLQMNSLKPEDTAVYYCNATGRRSKRIYDYWGQGTQVTVSS	high polyreactivity
QVQLVESGGGLVQAGGSLRLSCAASGRTVVNAMGWYRQAPGKERELVAAISSNGGRTYYADSVKGRFTISRDNAKNTVYLQINSLKPEDTAVYYCAAGYIWFRKIQFDYWGQGTQVTVSS	high polyreactivity
QVQLVESGGGLVQAGGSLRLSCAASGRTVYRYAMGWYRQAPGKERELVAAITGSGSSTYYADSVKGRFTISRDNAKNTVYLQMNSLKPEDTAVYYCAAARPRLGSAGKFGYWGQGTQVTVSS	high polyreactivity
QVQLVESGGGLVQAGGSLRLSCAASGRTYGEYGMGWYRQAPGKERELVAAISSTGSTYYADSVKGRFTISRDNAKNTVYLQMNSLKPEDTAVYYCAAEIVRYGDEYDYWGQGTQVTVSS	low polyreactivity
QVQLVESGGGLVQAGGSLRLSCAASGRTYLPNDMGWYRPAPGKERELVAAITDSGGDTYYADSVKGRFTISRDIAKNTVYLQMNSLKPEDTAVYYCAADYYYYGSYYPVEYWGHGTQVTVSS	high polyreactivity
QVQLVESGGGLVQAGGSLRLSCAASGRTYNVMGWYRQAPGKERYLVAAITWGGGSTHYADSVKGRFTISRDNAKNTVYLQMISLKPEDTAVYYCAADLLYKSTRVDYWGQGTQVTVSS	low polyreactivity
QVQLVESGGGLVQAGGSLRLSCAASGRTYRYAMGWYRQPPGKERELVAGISSSGTSTNYADSVKGRFTISRDNAKNTVYLQMNSLKPEDTAVYYCNADIIWFPADYLYDYWGQGTQVTVSS	low polyreactivity
QVQLVESGGGLVQAGGSLRLSCAASGRTYSNAMGWYRQAPGKELEFVASISSGGRTKDADSVKGRFTISRDNAKNTVYLQMNSLKPEDTADYYCNTVPGRYRTFDYWGQGTKVTVSS	high polyreactivity
QVQLVESGGGLVQAGGSLRLSCAASGRTYTYYAMGWYRQAPGKERELVAAISDSGGRTYYADSVKGRFTISRDNAKNTVYLQMNSLKPEDTAVYYCAATTYPYYRFDYWGQGTQVTVSS	high polyreactivity
QVQLVESGGGLVQAGGSLRLSCAASGRTYVKNAMGWYRQAPGKERELVAAITSGGSTYYADSVKGRFTISRDNAKNTVYLQMNSLKPEDTAVYYCAAAWSSRYVSRYYYWGQGTQVTVSS	high polyreactivity
QVQLVESGGGLVQAGGSLRLSCAASGRTYYPNAIGWYRQAPGKEMDLVADITYSGASTYYADSVKGRFTISRDNAKNTVYLQMNSLKPEDTAVYYCAVPGATSYFAYDSWGQGTQVTVSS	low polyreactivity
QVQLVESGGGLVQAGGSLRLSCAASGRVLPPNAIGWYRQAPGKERELVAAINWSSGRTYYADSVKGRFTISRDYAKNSVYLQMNSLKPEDTAVYDCAKAYRYAYGYDYWGQGTQVTVSS	high polyreactivity

Sequence	polyreactivity (PSR sort gate)
QVQLVESGGGLVQAGGSLRLSCAASGRVRYAIGWYRQAPGKESELVASITRRAGNTYYADSVKGRFTISRDNAKNTVYLQMNSLKPEDTAVYYCAAADVGAYRGNYWGQGTLVTVSS	high polyreactivity
QVQLVESGGGLVQAGGSLRLSCAASGSARYAMGWYRQATGNERELVAAISRRGGSTYYADSVKGRFTISRDNATKTVYLHMNSLKPEDTAVYYCAADGRISYDYWGQGTQVTVSS	low polyreactivity
QVQLVESGGGLVQAGGSLRLSCAASGSARYDMGWYRQPNGKERELVAAISRRGGSTFYADSVKGRFTISRDNAKNTVYLQMNSLKPEDTAVYYCAADGRISYDYWGQGTQVTVSS	low polyreactivity
QVQLVESGGGLVQAGGSLRLSCAASGSASRGNAMGWYRQAPGKERELVATISQSGGNTFYADSVKGRFTISRDNAKNSVYLQMNSLKPEDTAVYYCAAGRYWFGWYDYWGQGTQVTVSS	high polyreactivity
QVQLVESGGGLVQAGGSLRLSCAASGSIAMGWYRQAPGKERELVATISSSGGSTYYADSVKGRFTISRDNAKNTVYLQMNSLKPEDTAVYYCNTQAVYGGGEGGYDYWGQGTQVTVSS	low polyreactivity
QVQLVESGGGLVQAGGSLRLSCAASGSICAFYGMRWYRQAPGKERELVAAITRSGGSTYYADSVKGRFTISRDNAKNTVYLQMNSLKAEDTAVSYCAKRPHHGSTKYNYWGQGTQVTVSS	low polyreactivity
QVQLVESGGGLVQAGGSLRLSCAASGSICYDDMGWYSQAPGKERELVAAITWSGGSTYYADSVKGRFTISRDNAKNTVYLQMNSLKPEDTAVYYCAAIFGYGSTWWRWGKDDYWGQGTQVTVSS	high polyreactivity
QVQLVESGGGLVQAGGSLRLSCAASGSIDGYAMGWYRQAPGKERELVAAISKGGGNTYYADSVKGRFTISRDNAKNTVYLQMNSLKPEDTAVYYCAARRQIIWGQGTQVTVSS	high polyreactivity
QVQLVESGGGLVQAGGSLRLSCAASGSIFAANAMGWYRQAPGKERELVAAITRGGRTYYADSVKGRFTISRDNAKNTVYLQMNSLKPEDTAVYYCAAYVFSKREYYRYDYWGQGTQVTVSS	high polyreactivity
QVQLVESGGGLVQAGGSLRLSCAASGSIFAAYAKGWYIQAPGKERELVAAISDRGGSTYYADSVKGRFTISRDNSKITVYLQMNSLKPEDTAVYYCATSVFDVRGGPFYYWGQGTQVNVSS	high polyreactivity
QVQLVESGGGLVQAGGSLRLSCAASGSIFAAYVMGWYRQAPGKERELVAAISYSGGGTYYADSVKGRFTISRDNAKNTVYLQMNSLKPEDTAVYYCAADFGVFKSARYYYWGQGTQVTVSS	low polyreactivity
QVQLVESGGGLVQAGGSLRLSCAASGSIFADYTMGWYRQAPGKERELVAAITSGGSTYYADSVKGRFTISRDNAKNTVYLQMNSLKPEDTAVYYCAAYYGGRGYWGQGTQVTVSS	low polyreactivity
QVQLVESGGGLVQAGGSLRLSCAASGSIFAENAMGCYRQAPGKERELVAAITRSGGSTYYADSVKGRFTISRDNAKNTVYLQMNSLKPEDTAVYYCAAREIASDDWGPDDYWGQGTQVTVSS	low polyreactivity
QVQLVESGGGLVQAGGSLRLSCAASGSIFAEYAMGWYRQAPGKERELVAAINGGGSTYYADSVKGRFTISRDNAKNTVYLEMNSLKPEDTAVYYCAAEKYTSWYSFWGYLYDYWGQGTQVTVSS	high polyreactivity
QVQLVESGGGLVQAGGSLRLSCAASGSIFAFYAMGLYRQAPGKERELVAAITASGGRTYYADSVKGRFTISRDIAKNTVYLQMNSLKPEDTAVYYCAAERQTIYIGLYGYPGWSQYNYWGQGTQVTVSS	low polyreactivity
QVQLVESGGGLVQAGGSLRLSCAASGSIFAFYAMGRYRQAPGKERELVAAISYNGGSTYYADSVKGRFTISRDNAKNTVYLQMNSLKAEDTAVYYCAAYHFRAPSEYDYWGQGTQVTVSS	low polyreactivity
QVQLVESGGGLVQAGGSLRLSCAASGSIFAFYVMGWYRQAPGKERELVAAINRGGTNTYYADSVKGRFTISRDNGKNTVYLQMNSLKPEDTAVYYCAAQRYGGMDYWGQGTQVTVSS	high polyreactivity
QVQLVESGGGLVQAGGSLRLSCAASGSIFAGNAMGWYCHAPGKERELVAAIRYGGTSTYYADSVKGRFTISRDNAKNTVYLQMNSLIPEDTAVYYCAATDWWGYYYWGQGTQVTVSS	high polyreactivity
QVQLVESGGGLVQAGGSLRLSCAASGSIFAGNAMGWYRQAPGKERELVAAISRRGGSTYYADSVKGRFTISRDNAKNTVYLQMNSLKPEDTAVYYCNALLRYAYHAAYGYWGQGPQVTVSS	high polyreactivity
QVQLVESGGGLVQAGGSLRLSCAASGSIFAGYAMGWYRKAPGKERELVAVISSTGSTYYADSVKGRFTISRDNAKNTVYLQMNSLKTEDTAVYYCNAYRYWSPGYDYWGQGTQVTVSS	low polyreactivity
QVQLVESGGGLVQAGGSLRLSCAASGSIFAGYAMGWYRPAPGKERELVAAINWTGDSTYYADSVKGRFTISRDNAKNTVYLQMNSLKPEDTAVYYCAAIRRQKGLWDYYYWGQGTQVTVSS	low polyreactivity
